{"source": "paper PMC4115230", "about": "“Lipid–Protein Nanodiscs Offer New Perspectives for Structural and Functional Studies of Water-Soluble Membrane-Active Peptides” (Acta Naturae, 2014)", "key": {"[1]": {"system": "LPNs", "experiment": "Gel filtration analysis of LPNs after peptide addition (nanodisc integrity, particle size)", "assay_type": "physicochemical", "settings": "Superdex-200, 10 mM Tris-HCl, 0.1 M NaCl", "method": "was carried out on a Superdex-200 resin using a Tricorn 5/200 column (GE Healthcare, Sweden) in buffer (10 mM Tris-HCl, 0.1 M NaCl, 1 mM EDTA, 1 mM NaN3, pH 7.4). Thyroglobulin (669 kDa, Stokes radius RH = 8.5 nm), ferritin (440 kDa, RH = 6.1 nm), catalase (232 kDa, RH = 5.22 nm), aldolase (158 kDa, RH = 4.81 nm) BSA (67 kDa, RH = 3.55 nm), and ovalbumin (43 kDa, RH = 3.05 nm) were used as calibration proteins. The flow rate through the column was 0.3 ml/min. Detection was performed at 280 nm. The particle size was determined from the elution volume vs the lgRH calibration curve. All the particle size (diameter) values provided below correspond to twice RH values. ;"}, "[2]": {"system": "LPN/POPC", "experiment": "NMR titration binding isotherm with LPN/POPC nanodiscs", "settings": "POPC, 1D 1H-NMR titration, 10 mM Tris-Ac, pH 7.0", "method": "(§1) The recombinant 44–243 fragment of the human apolipoprotein A1 with a N-terminal sequence of six His residues was used as an MSP protein. The purified MSP protein, obtained as described in [20], was mixed at a molar ratio of 1 : 75 with lipids in the presence of a detergent, sodium cholate (2 : 1 cholate/lipids molar ratio), and the mixture was incubated at 4 °C for 3 h. When using saturated lipids (DLPC, DLPG), the reaction temperature was kept not lower than 25 °C. Spontaneous LPN assembly was initiated by detergent sorption to the Bio-Beads™ resin (Bio-Rad, USA) for 1.5 h. Purification of the nanodiscs was performed on a Ni^2+ Sepharose 6 Fast Flow resin (GE Healthcare, USA) equilibrated with buffer A (20 mM Tris-HCl, 0.5 M NaCl, 1 mM NaN3, pH 8.0). After loading the reaction mixture, the resin was washed with a fivefold volume of buffer A. LPNs were eluted with buffer A containing 100 mM imidazole. The MSP concentration was determined spectrophotometrically by absorbance at λ = 280 nm. The LPN concentration was determined by assuming that each nanodisc contained two MSP molecules.\n(§2) NMR spectra were acquired at 40–45 °C on AVANCE -700 and AVANCE -III-800 spectrometers (Bruker, Germany) equipped with cryogenically cooled triple-resonance probes at the proton resonance frequencies of 700 and 800 MHz, respectively. […]"}, "[3]": {"system": "LPN/POPC/DOPS (4 : 1)", "experiment": "Paramagnetic relaxation enhancement from 5-DSA in 2D 1H,15N-TROSY", "assay_type": "binding", "settings": "5-DSA 10, 30 and 75 μM; 45 μM 2H,15N-NT II, 75 μM LPN/POPC/DOPS (4 : 1), pH 7.0", "method": "(§3) The interaction of NT II with LPN was studied using a sample containing 45 μM ^2H,^15N-NT II, and 75 μM LPN/POPC/DOPS (4 : 1) (10 mM Tris-Ac, pH 7.0). To identify the peptide HN-groups making contacts with the nanodisc surface, the ^1H signal of choline group of the POPC lipid ((CH3)3N^+-, chemical shift is 3.2 ppm) was saturated at a frequency of 125 Hz for 0.1, 0.3, 0.5, 0.8, 1.0, 1.5, and 3.0 s using a relaxation delay of 3 s. […] To identify the peptide HN-groups making contacts with the hydrophobic region of the nanodisc membrane, the paramagnetic probe of 5-doxyl-stearic acid (5-DSA) was used. 5-DSA dissolved in a small amount of methanol was added to the sample containing NT II/LPN complexes to a final concentration of 10, 30, and 75 μM. […] The rates of the cross-correlation process between the dipole-dipole relaxation and relaxation arising from the chemical shift anisotropy of the ^15N nucleus (ηXY) were measured for the complexes of NT II with LPN/POPC/DOPS at 40 °C on an AVANCE -III-800 spectrometer, using amplitude modulated 2D ^1H,^15NTR OSY experiments. The rotational correlation time (τR) for the peptide HN-groups was calculated from the measured ηXY values."}, "[4]": {"system": "LPN/POPC/DOPG (3 : 1)", "experiment": "NMR titration binding isotherm with LPN/POPC/DOPG (3 : 1) nanodiscs", "settings": "10 mM Tris-Ac; for binding to LPNs: POPC/DOPG, 3 : 1, 1D 1H-NMR titration, pH 7.0", "method": "as §1\n(§4) NMR spectra were acquired at 40–45 °C on AVANCE -700 and AVANCE -III-800 spectrometers (Bruker, Germany) equipped with cryogenically cooled triple-resonance probes at the proton resonance frequencies of 700 and 800 MHz, respectively.\n(§5) To measure the isotherms of the toxins binding to LPNs and MSP molecules, the VSTx1 and NT II samples ([…], 10 mM Tris-Ac, pH 7.0) were titrated with solutions of nanodiscs (70 μM) of various lipid compositions or with a MSP solution (0.7 mM). The 1D 1H-NMR spectrum was acquired at each point. A data analysis was performed assuming that the intensity of the observed NMR signals of a peptide is proportional to its equilibrium concentration in solution ([P]free). The binding curves were fitted either to the partition equilibrium equation (1) or to the Langmuir isotherm equation (2), taking into account the dilution of the initial samples upon titration:\n(§6) where [LPN/lipid] is the LPN concentration (assuming that one nanodisc contains two MSP molecules) or the lipid concentration (assuming that one nanodisc contains 150 lipid molecules), [P]boundis the concentration of a peptide bound to LPN ([P]0 = [P]free+ [P]bound), Kpis the partition coefficient, n is the number of binding sites for a peptide on the nanodisc surface, and Knis the affinity constant of the peptide to the binding site on the nanodisc surface."}, "[5]": {"system": "LPN/POPC/DOPS (4 : 1)", "experiment": "Saturation of POPC choline signal (NOE magnetization transfer) in 2D 1H,15N-TROSY", "assay_type": "binding", "settings": "45 μM 2H,15N-NT II, 75 μM LPN/POPC/DOPS (4 : 1), 10 mM Tris-Ac, pH 7.0", "method": "as §3"}, "[6]": {"system": "muscle-type nicotinic acetylcholine receptor", "settings": "blocks ligand binding sites with its central loop; ref [36]; cited from earlier work", "source_text": "Neurotoxin II (NT II) is a cationic non-hydrophobic peptide which is stabilized by four disulfide bonds and has the so-called “three-loop” β-structure fold characteristic for snake toxins (Fig. 1). […] It blocks, with its central loop, the ligand binding sites located on the receptor extracellular domain [36]. Unlike VSTx1, NT II has no explicit membrane activity. At the same time, the ^1H,^15N-, and ^31P-NMR spectroscopy investigation of NT II in the environment of DOPC/ DOPS/cholesterol (3 : 1 : 1) ..."}, "[7]": {"system": "LPN/POPC/DOPS (4 : 1)", "experiment": "15N cross-correlation relaxation rates (ηXY) of NT II in complex with LPN", "assay_type": "physicochemical", "method": "as §4, §3"}, "[8]": {"system": "MSP (44-243 fragment of human apolipoprotein A1)", "experiment": "NMR titration binding isotherm with MSP", "settings": "MSP without lipids; 1D 1H-NMR titration, 10 mM Tris-Ac, pH 7.0", "method": "as §1, §2"}, "[9]": {"system": "LPN/POPC/DOPS (4 : 1)", "experiment": "Topology of NT II on nanodisc membrane (combined NOE and PRE data)", "assay_type": "binding", "settings": "fast exchange on the NMR scale", "method": "as §3"}, "[10]": {"system": "LPN/POPC/DOPS (4 : 1)", "experiment": "NMR titration binding isotherm with LPN/POPC/DOPS (4 : 1) nanodiscs", "settings": "for binding to LPNs: POPC/DOPS, 4 : 1, 1D 1H-NMR titration, pH 7.0", "method": "as §1, §4, §5, §6"}}}
{"molecule": "neurotoxin II (not fully specified; ends and bridges not checked; also: 2H,15N-labeled) LECHNQQSSQPPTTKTCSGETNCYKKWWSDHRGTIIERGCGCPKVKPGVNLNCCRTDRCNN", "values": [{"measurement": "nanodisc disruption", "setting": "[1]; 1 mM EDTA, pH 7.4, 280 nm", "value": "no disruption of nanodiscs"}, {"measurement": "diameter of unbound toxin", "setting": "[1]; pH 7.4, diameter = 2 RH", "value": "~ 2.6 nm"}, {"measurement": "binding to LPNs", "setting": "[2]", "value": "lack of detectable binding"}, {"measurement": "binding to LPNs", "setting": "[2]; listed as NTII", "value": "does not bind"}, {"measurement": "residues with maximum attenuation of HN-signal intensities (PRE)", "setting": "[3]", "value": "Thr21 residue of the toxin “head” and for residues of the third and second loops"}, {"measurement": "binding to LPNs", "setting": "[4]", "value": "low affinity"}, {"measurement": "binding to LPNs", "setting": "[4]; listed as NTII", "value": "comparatively low affinity"}, {"measurement": "Kp(LPN, MSP×2), partition coefficient", "setting": "[4]; partition equilibrium (eq. 1), LPN concentration as non-aqueous phase, pH 7.0, 40–45 °C, no added salt", "value": "0.32 ± 0.01 ×10^6·M^-1"}, {"measurement": "Kp(Lipids), partition coefficient", "setting": "[4]; partition equilibrium (eq. 1), lipid concentration as non-aqueous phase (150 lipids per nanodisc), pH 7.0, 40–45 °C, no added salt", "value": "2.13 ± 0.07 ×10^3·M^-1"}, {"measurement": "toxin regions with drop of cross-peak intensity on POPC choline saturation", "setting": "[5]", "value": "1) in the toxin “head”, near the putative binding site for phosphatidylserine, and 2) in the central (second) loop, at the level of Trp27, Trp28, and Ile35 residues"}, {"measurement": "inhibition of muscle-type nicotinic acetylcholine receptor", "setting": "[6]", "value": "highly specific inhibitor"}, {"measurement": "ηXY, cross-correlation rates of 15N nuclear relaxation, range", "setting": "[7]; 2H,15N-NT II in complex with LPN/POPC/DOPS, 800 MHz, 40 °C", "value": "2.5 to 40", "unit": "Hz"}, {"measurement": "diameter of globular particle corresponding to mean τR", "setting": "[7]; calculated from mean τR", "value": "~ 5.4 nm"}, {"measurement": "mass of globular particle corresponding to mean τR", "setting": "[7]; calculated from mean τR", "value": "~ 34 kDa"}, {"measurement": "rotational correlation time τR, range", "setting": "[7]; calculated from ηXY, NT II in complex with LPN/POPC/DOPS, 40 °C", "value": "2 to 31", "unit": "ns"}, {"measurement": "rotational correlation time τR, mean", "setting": "[7]; calculated from ηXY, mean, NT II in complex with LPN/POPC/DOPS, 40 °C", "value": "~ 12.5 ns"}, {"measurement": "ηXY, cross-correlation rates of 15N nuclear relaxation, mean", "setting": "[7]; mean value, 2H,15N-NT II in complex with LPN/POPC/DOPS, 800 MHz, 40 °C", "value": "16.3 ± 9.2", "unit": "Hz"}, {"measurement": "interaction with MSP", "setting": "[8]", "value": "absence of nonspecific toxin interactions with the MSP protein"}, {"measurement": "orientations on the nanodisc surface", "setting": "[9]", "value": "several (at least two) orientations"}, {"measurement": "orientations on the nanodisc surface", "setting": "[9]; listed as NTII", "value": "several orientations"}, {"measurement": "selectivity for membranes containing different anionic lipids (phosphatidylserine and phosphatidylglycerol)", "setting": "[10]; LPN/POPC/DOPS (4 : 1) compared with LPN/POPC/DOPG (3 : 1)", "value": "lack of significant NT II selectivity"}, {"measurement": "binding to LPNs", "setting": "[10]; 10 mM Tris-Ac", "value": "low affinity"}, {"measurement": "binding to LPNs", "setting": "[10]; 10 mM Tris-Ac, listed as NTII", "value": "comparatively low affinity"}, {"measurement": "Kp(LPN, MSP×2), partition coefficient", "setting": "[10]; partition equilibrium (eq. 1), LPN concentration as non-aqueous phase, 10 mM Tris-Ac, pH 7.0, 40–45 °C, no added salt", "value": "0.16 ± 0.01 ×10^6·M^-1"}, {"measurement": "Kp(Lipids), partition coefficient", "setting": "[10]; partition equilibrium (eq. 1), lipid concentration as non-aqueous phase (150 lipids per nanodisc), 10 mM Tris-Ac, pH 7.0, 40–45 °C, no added salt", "value": "1.07±0.07 ×10^3·M^-1"}]}
